The supplement of paper PMC12764529
± gives the half width of the 95% confidence interval.

Key:
[1] = folding stability dG unfold (combined trypsin and chymotrypsin); higher = more stable
Procedure, shortened: (§1)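 Sequencing followed digestion of designed mini-proteins with trypsin and chymotrypsin, each at 11 concentrations in threefold dilutions together with a no-protease condition. The mini-proteins were under 80 residues, had no cysteine, sat in a PA-tagged cDNA display construct, and were kept only if AlphaFold2 dimer inter-PAE was above 15. From the counts, Bayesian fitting gave K50, and unfolding free energy was derived against a sequence-predicted unfolded-state K50 and a shared folded-state K50, per protease or combined.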

[2] = folding stability dG unfold from chymotrypsin proteolysis; higher = more stable
Procedure, shortened: as §1

[3] = folding stability dG unfold from trypsin proteolysis; higher = more stable
Procedure, shortened: as §1

Sequence | folding stability dG unfold [1] | folding stability dG unfold [2] | folding stability dG unfold [3]
SAGGSAGGSAGGMEIEKNENGELIIKFKSKEEAEKAIEELKKKGYKVELNEDGYLIIKPSAGGSAGGSAGGS [r10_1027_TrROS_Hall] | 3.96 ± 0.13 kcal/mol | 4.07 ± 0.14 kcal/mol | 3.34 ± 0.16 kcal/mol
SAGGSAGGSAGGMEIIEKEETLDEETLKKLEEEGVPKSEATVKVTEVIYKEEYPEEGLKSAGGSAGGSAGGS [r10_1149_JUSTAS] | -0.137 ± 0.34 kcal/mol | -0.692 ± 0.28 kcal/mol | 0.359 ± 0.072 kcal/mol
SAGGSAGGSAGGMEIREVEVTFVPPDGTTTTRKVLATSEEEAKAILEEELPPDWEIILRSAGGSAGGSAGGS [r10_145_JUSTAS] | 0.55 ± 0.082 kcal/mol | 0.831 ± 0.034 kcal/mol | -0.122 ± 0.11 kcal/mol
SAGGSAGGSAGGMEKVTEVKPVATLPNGTVVTETLVTYTAPNGPEIGEEVVLTEDPVPKSAGGSAGGSAGGS [r10_941_JUSTAS] | -0.455 ± 0.15 kcal/mol | -0.408 ± 0.2 kcal/mol | -0.942 ± 0.22 kcal/mol
SAGGSAGGSAGGMELELTFATPEQAVEYAERFERLGYEVEVEYYPETGLVRVRVRLYPEESAGGSAGGSAGG [r7_623_TrMRF] | 3.76 ± 0.074 kcal/mol | 3.6 ± 0.072 kcal/mol | 3.97 ± 0.11 kcal/mol
SAGGSAGGSAGGMEVKTVEDPKGLTVEVSPPVGTATTVYGDETVTHTLSPSATVALEPASAGGSAGGSAGGS [r10_637_JUSTAS] | 0.31 ± 0.1 kcal/mol | 0.435 ± 0.033 kcal/mol | -0.0233 ± 0.042 kcal/mol
SAGGSAGGSAGGMEYSISNVTTETFPEGNKTVTVETYTFDDGGTITVTKENGKVLEVNPKSAGGSAGGSAGG [r7_552_JUSTAS] | 0.135 ± 0.11 kcal/mol | 0.586 ± 0.062 kcal/mol | -1.57 ± 0.56 kcal/mol
SAGGSAGGSAGGMFVRIEVDGKTILLEADSLEEALAAIRALLPPGEKVKVELVSEEELKSAGGSAGGSAGGS [r10_1167_TrROS_Hall] | 2.85 ± 0.047 kcal/mol | 3.04 ± 0.068 kcal/mol | 2.44 ± 0.084 kcal/mol
SAGGSAGGSAGGMIKTEDGYEVEIKIEVEEIPLPEGMSEEEKEKLKKIRIIRIEIKVTKKSAGGSAGGSAGG [r7_324_TrROS_Hall] | 2.26 ± 0.36 kcal/mol | 2.5 ± 0.33 kcal/mol | 1.67 ± 0.12 kcal/mol
SAGGSAGGSAGGMILVENPSLNESTVLSKDTPISSFKVPSDNSKVRIIIIYPSNSFVVISSAGGSAGGSAGG [r7_763_JUSTAS] | 1.71 ± 0.088 kcal/mol | 1.55 ± 0.14 kcal/mol | 1.85 ± 0.073 kcal/mol
SAGGSAGGSAGGMIRIENPGNGEPRPIKPNDLEDILDNFPGPMRIETGGGEKEVPAKDISAGGSAGGSAGGS [r10_839_TrROS] | -0.0618 ± 0.21 kcal/mol | 0.052 ± 0.079 kcal/mol | -0.528 ± 0.13 kcal/mol
SAGGSAGGSAGGMIRIVNEETGEEIEISPEELEELLAKSDKPVRIEVDGKVIPLDAKDLSAGGSAGGSAGGS [r10_839_TrROS_Hall] | 0.352 ± 0.091 kcal/mol | -0.268 ± 0.054 kcal/mol | 0.85 ± 0.03 kcal/mol
SAGGSAGGSAGGMITVEYDPSRPVYTVTVTDPTTGKTTVIDVPRDDLEQALALAEALLKSAGGSAGGSAGGS [r10_1117_JUSTAS] | 1.67 ± 0.064 kcal/mol | 1.95 ± 0.03 kcal/mol | 0.647 ± 0.046 kcal/mol
SAGGSAGGSAGGMKITLTVPSEEEIEALTPPDAKITEIKKIGKDPVKGLPYYEVVLDPSSAGGSAGGSAGGS [r10_256_JUSTAS] | 0.0912 ± 0.14 kcal/mol | 0.411 ± 0.033 kcal/mol | -1.42 ± 0.44 kcal/mol
